One block for each molecule: values may come before it.
Key:
[1] = target: T1, CyD (cysteine desulfurase, unencapsulated) (Synechococcus elongatus, UniProt Q8KUU5); experiment: coupled alanine dehydrogenase assay, NADH fluorescence; type: biochemical; details: 25 mM Tris-HCl pH 8, 150 mM NaCl, 5 mM NAD+, 25 °C, 200 nM enzyme
T1 construct: full length incl; 225-residue N-terminal domain; N-terminal His-SUMO tag cut off; E. coli BL21(DE3) LOBSTR; 68 kDa; PLP enzyme
T1 sequence (Q8KUU5 1-626): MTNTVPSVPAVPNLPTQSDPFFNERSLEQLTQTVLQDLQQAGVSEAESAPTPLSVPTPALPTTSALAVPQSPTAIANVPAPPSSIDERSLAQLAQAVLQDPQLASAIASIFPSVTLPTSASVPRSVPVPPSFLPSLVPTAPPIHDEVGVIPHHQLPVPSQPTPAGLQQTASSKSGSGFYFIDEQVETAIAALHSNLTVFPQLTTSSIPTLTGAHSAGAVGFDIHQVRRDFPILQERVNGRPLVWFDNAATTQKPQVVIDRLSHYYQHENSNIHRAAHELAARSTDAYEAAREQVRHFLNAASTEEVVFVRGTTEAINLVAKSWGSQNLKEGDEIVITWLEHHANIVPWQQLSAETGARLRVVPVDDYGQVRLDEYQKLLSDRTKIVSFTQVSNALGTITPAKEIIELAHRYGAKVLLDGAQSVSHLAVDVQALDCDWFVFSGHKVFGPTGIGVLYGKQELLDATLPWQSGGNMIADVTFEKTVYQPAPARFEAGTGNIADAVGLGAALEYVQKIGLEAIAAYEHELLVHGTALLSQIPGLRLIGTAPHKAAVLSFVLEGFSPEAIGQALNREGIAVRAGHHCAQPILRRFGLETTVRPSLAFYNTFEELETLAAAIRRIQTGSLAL

[2] = target: T2, ΔNTD-CyD (unencapsulated) (Synechococcus elongatus, UniProt Q8KUU5); experiment: as above; type: biochemical; details: 25 mM Tris-HCl pH 8, 150 mM NaCl, 5 mM NAD+, 25 °C, 200 nM enzyme
T2 construct: N-terminal His-SUMO tag cut off; E. coli; 45 kDa
T2 sequence (Q8KUU5 226-626 limits assumed): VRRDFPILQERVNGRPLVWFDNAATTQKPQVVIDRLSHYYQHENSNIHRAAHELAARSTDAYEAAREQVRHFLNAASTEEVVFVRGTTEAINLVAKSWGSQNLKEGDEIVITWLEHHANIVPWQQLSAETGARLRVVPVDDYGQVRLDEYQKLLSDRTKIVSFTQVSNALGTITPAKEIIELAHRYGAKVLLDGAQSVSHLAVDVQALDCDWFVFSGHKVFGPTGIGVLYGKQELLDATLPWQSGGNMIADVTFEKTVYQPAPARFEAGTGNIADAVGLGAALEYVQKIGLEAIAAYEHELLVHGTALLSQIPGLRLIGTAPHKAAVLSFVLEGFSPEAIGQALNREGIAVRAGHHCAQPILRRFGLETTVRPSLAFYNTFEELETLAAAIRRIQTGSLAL

[3] = target: T3, encapsulated CyD (CyD-loaded SrpI encapsulin) (Synechococcus elongatus, UniProt Q8KUU5); experiment: as above; type: biochemical; details: 25 mM Tris-HCl pH 8, 150 mM NaCl, 5 mM NAD+, 25 °C, 200 nM enzyme; CyD encapsulated in SrpI shell
T3 construct: E. coli; 1-2 CyD copies seen in difference map; with Type 2A encapsulin shell protein SrpI
T3 sequence (Q8KUU5 1-626): T1 sequence (Q8KUU5 1-626)
T3 sequence (Q55032 1-306 partner): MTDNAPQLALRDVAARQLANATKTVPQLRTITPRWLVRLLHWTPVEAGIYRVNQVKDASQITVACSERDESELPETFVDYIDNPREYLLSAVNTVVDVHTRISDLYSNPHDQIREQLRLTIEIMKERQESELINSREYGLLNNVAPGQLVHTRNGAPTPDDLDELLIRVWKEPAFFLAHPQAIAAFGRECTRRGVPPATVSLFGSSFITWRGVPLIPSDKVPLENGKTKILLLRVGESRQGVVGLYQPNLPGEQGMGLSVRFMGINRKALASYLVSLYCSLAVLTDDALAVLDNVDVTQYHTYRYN

[4] = target: SrpI encapsulin shell protein with C-terminal 6X-His tag, from inclusion bodies, refolded (Synechococcus elongatus PCC 7942) (UniProt Q55032); experiment: negative stain TEM; apo-SrpI and holo-SrpI (CyD loaded by refolding) at 300 nM in 50 mM CAPS pH 10, 250 mM arginine, 150 mM NaCl; uranyl formate; 3D reconstruction without symmetry, ~18 Å; difference map
[5] = target: the molecule itself; experiment: cryo-EM structure; purified holo-SrpI, 2 mg/mL in 50 mM CAPS pH 10, 250 mM arginine, 150 mM NaCl, 0.05% NP-40; 2.2 Å; symmetry expansion and focused classification for cargo density
[6] = target: the molecule itself; experiment: non-denaturing SDS-PAGE; purified encapsulin, samples not heat-denatured compared with samples heated at 95°C for 15 min
[7] = target: T4, SrpI encapsulin shell protein with C-terminal 6X-His tag, from inclusion bodies, refolded (Synechococcus elongatus (strain ATCC …, UniProt Q55032)); experiment: in vitro cargo loading (co-refolding), SEC co-elution and SDS-PAGE/sfGFP fluorescence; shell unfolded in GuHCl and refolded by dilution in the presence of cargo (encapsulation; CAPS pH 10, 250 mM arginine, glycerol, DTT); NTD fused to sfGFP
T4 chain: T3 sequence (Q55032 1-306 partner)

Molecule: N[C@@H](CS)C(=O)O [L-cysteine]
- coupled alanine dehydrogenase assay, NADH fluorescence [1]: Unencapsulated CyD was active towards a cysteine substrate
- coupled alanine dehydrogenase assay, NADH fluorescence [2]: the N-terminal domain had no effect on catalytic activity
- coupled alanine dehydrogenase assay, NADH fluorescence [3]: the encapsulated CyD was roughly sevenfold more active than unencapsulated CyD

- copies of CyD in the difference density of the loaded compartment [4]: 1 to 2 copies
Molecule: Full-length cysteine desulfurase CyD (Synpcc7942_B2661), purified (enzyme)

B1: SrpI encapsulin shell protein with C-terminal 6X-His tag, from inclusion bodies, refolded (natural protein, Synechococcus elongatus PCC 7942)
chain: T3 sequence (Q55032 1-306 partner)
notes: monomer 35 kDa; T = 1 icosahedral capsid of 60 subunits by cryo-EM; also called apo-SrpI; holo-SrpI (when loaded with CyD); copies: 60
- stoichiometry N [5]: 60 subunits

B2: Thermotoga maritima Family 1 encapsulin shell protein (natural protein)
chain: MEFLKRSFAPLTEKQWQEIDNRAREIFKTQLYGRKFVDVEGPYGWEYAAHPLGEVEVLSDENEVVKWGLRKSLPLIELRATFTLDLWELDNLERGKPNVDLSSLEETVRKVAEFEDEVIFRGCEKSGVKGLLSFEERKIECGSTPKDLLEAIVRALSIFSKDGIEGPYTLVINTDRWINFLKEEAGHYPLEKRVEECLRGGKIITTPRIEDALVVSERGGDFKLILGQDLSIGYEDREKDAVRLFITETFTFQVVNPEALILLKF
notes: Family 1 encapsulin shell protein, Thermotoga maritima; also called Tm Enc; T. maritima encapsulin; source: purified
- binding result [6]: binds

- binding result [7]: binds
B3: CyD N-terminal domain (residues 1–225) fused to sfGFP (protein)
chain: MTNTVPSVPAVPNLPTQSDPFFNERSLEQLTQTVLQDLQQAGVSEAESAPTPLSVPTPALPTTSALAVPQSPTAIANVPAPPSSIDERSLAQLAQAVLQDPQLASAIASIFPSVTLPTSASVPRSVPVPPSFLPSLVPTAPPIHDEVGVIPHHQLPVPSQPTPAGLQQTASSKSGSGFYFIDEQVETAIAALHSNLTVFPQLTTSSIPTLTGAHSAGAVGFDIHQ

From PMC8049743, “Discovery and characterization of a novel family of prokaryotic nanocompartments involved in sulfur metabolism” (eLife, 2021)
